In publication doi:10.1101/2025.07.14.664805:

What follows are substances tested against B. mori CS-1 (Centromeric Subunit protein 1) (Bombyx mori) (assay: SEC-MALS).

| stoichiometry N | Substance |
| --- | --- |
| 1 | B. mori CS-3 (Centromeric Subunit protein 3) (natural protein) |
| 1 | B. mori CS-4 (Centromeric Subunit protein 4) (natural protein) |
| 1 | B. mori CS-2 (Centromeric Subunit protein 2) (natural protein) |
